The results in this text go back to EP1175513B1, “MinK-RELATED GENES, FORMATION OF POTASSIUM [sequence] AND ASSOCIATION WITH CARDIAC [sequence]” (The University of Utah Research Foundation, priority 1999, dated 2000).

Data set [1] deals with HERG (human, UniProt Q12809 1-1159). In words: cell-based or functional assay.
Data set [2] concerns the target T1, channels formed with Q9E-hMiRP1 (Homo sapiens, UniProt Q12809). In words: in vitro. Conditions: cho cells.
For data set [3] the following is noted: human, in vivo, po. Here is the method: To test the hypothesis that MiRP1 mutants cause cardiac arrhythmia, we screened a panel of 20 patients with drug-induced arrhythmia and 230 patients with inherited or sporadic arrhythmias and no mutations in their KVLQT1, HERG, SCN5A or KCNE1 genes.
Q9E-hMiRP1. […] The patient is a person with a history of high blood pressure, non-insulin dependent diabetes and stroke. […] The patient was admitted to the hospital with pneumonia and treated with 7 doses of intravenous erythromycin, 500 mg every 6 hours and then switched to oral clarithromycin, 500 mg every 12 hours.

In data set [4] the target is channels formed with wild type hMiRP1 (Homo sapiens, UniProt Q12809). In words: Clarithromycin blockade of channels expressed in CHO cells. Conditions: effect of clarithromycin (Fig. 9C).
Chain of channels formed with wild type hMiRP1 (Q12809 whole entry): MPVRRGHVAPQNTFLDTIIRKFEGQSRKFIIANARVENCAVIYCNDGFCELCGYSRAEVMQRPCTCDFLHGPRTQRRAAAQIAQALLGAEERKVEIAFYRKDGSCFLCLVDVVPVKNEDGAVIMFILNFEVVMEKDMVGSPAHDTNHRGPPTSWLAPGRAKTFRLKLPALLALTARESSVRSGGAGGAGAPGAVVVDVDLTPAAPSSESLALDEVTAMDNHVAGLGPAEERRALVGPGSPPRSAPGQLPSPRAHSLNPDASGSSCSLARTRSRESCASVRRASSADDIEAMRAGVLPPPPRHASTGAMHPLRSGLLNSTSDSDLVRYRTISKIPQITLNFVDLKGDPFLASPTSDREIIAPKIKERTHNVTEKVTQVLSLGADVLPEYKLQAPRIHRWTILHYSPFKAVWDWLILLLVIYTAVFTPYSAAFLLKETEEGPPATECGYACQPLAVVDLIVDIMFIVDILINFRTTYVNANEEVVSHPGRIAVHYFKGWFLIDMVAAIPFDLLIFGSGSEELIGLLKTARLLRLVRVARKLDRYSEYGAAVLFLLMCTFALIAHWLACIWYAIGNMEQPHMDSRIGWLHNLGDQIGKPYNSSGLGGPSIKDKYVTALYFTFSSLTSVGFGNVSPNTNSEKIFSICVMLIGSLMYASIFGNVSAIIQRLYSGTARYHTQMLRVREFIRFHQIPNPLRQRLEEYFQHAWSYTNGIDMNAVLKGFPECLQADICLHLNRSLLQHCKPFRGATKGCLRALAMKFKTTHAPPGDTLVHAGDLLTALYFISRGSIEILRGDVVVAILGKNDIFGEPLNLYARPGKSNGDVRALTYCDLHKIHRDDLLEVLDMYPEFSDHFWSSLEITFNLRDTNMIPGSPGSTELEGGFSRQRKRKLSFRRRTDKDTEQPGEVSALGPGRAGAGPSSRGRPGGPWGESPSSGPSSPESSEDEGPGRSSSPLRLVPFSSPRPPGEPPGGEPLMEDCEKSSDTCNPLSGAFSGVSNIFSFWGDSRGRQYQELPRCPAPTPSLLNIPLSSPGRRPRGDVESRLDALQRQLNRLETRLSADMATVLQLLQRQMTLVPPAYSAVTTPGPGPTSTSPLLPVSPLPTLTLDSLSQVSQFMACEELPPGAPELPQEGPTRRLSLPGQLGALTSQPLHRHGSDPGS
Chain of channels formed with wild type hMiRP1 (Q9Y6J6 whole entry partner): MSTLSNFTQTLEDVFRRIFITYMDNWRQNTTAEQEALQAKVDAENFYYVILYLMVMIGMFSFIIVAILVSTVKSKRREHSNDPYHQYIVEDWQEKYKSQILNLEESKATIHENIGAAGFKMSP
The target in data set [5] is T1, channels formed with Q9E-hMiRP1. Described as above. The note with it: effect of clarithromycin (Fig. 9C).

T1 sequence (Q12809 whole entry): as the sequence (Q12809 whole entry) above
T1 sequence (Q9Y6J6 with tags, fused parts or gaps Q9E partner): as the sequence (Q9Y6J6 whole entry partner) above, with Q9E counted along it

With “wild type human MiRP1 (from UniProt Q9Y6J6 1-123)”, in data set [1], the activation V1/2 in 1 mM Ca^2+, 1 mM KCl solution is -20 mV; the activation V1/2 mV was -21 mV; the deactivation ratio If/(Is + If) was 0.82; the deactivation τf s stood at 80 ms. Also, in data set [1], the deactivation τs, s was 483; the faster deactivation against HERG alone (τf at -120 mV) is 3 fold; the unitary conductance (oocytes) was determined as 8 pS.

For `CC[C@H]1OC(=O)[C@H](C)[C@@H](O[C@H]2C[C@@](C)(OC)[C@@H](O)[C@H](C)O2)[C@H](C)[C@@H](O[C@@H]2O[C@H](C)C[C@H](N(C)C)[C@H]2O)[C@](C)(OC)C[C@@H](C)C(=O)[C@H](C)[C@@H](O)[C@]1(C)O` [clarithromycin], the selectivity ratio in data set [2] is 3. Also, the arrhythmia developed result in data set [3] was “TdP and VF”. Further, the slope factor result in data set [4] and in data set [5] was “no change” throughout.

As to Q9E-hMiRP1 (from UniProt Q9Y6J6 1-123), in data set [1], the activation V1/2 in 1 mM Ca^2+, 1 mM KCl solution was -12 mV; the activation V1/2 mV is -12 mV; the deactivation ratio If/(Is + If) was 0.8; the deactivation τf s came out at 100 ms. In data set [1], this molecule showed a deactivation τs, s of 750.

For T8A-hMiRP1 (from UniProt Q9Y6J6 1-123), in data set [1], the activation V1/2 mV is -29 mV; the deactivation ratio If/(Is + If) amounted to 0.83; the deactivation τf s worked out at 100 ms; the deactivation τs, s came to 590.

Consider M54T-hMiRP1 (from UniProt Q9Y6J6 1-123), for which, in data set [1], the activation V1/2 mV is -21 mV; the deactivation ratio If/(Is + If) was 0.81; the deactivation τf s stood at 37 ms; the deactivation τs, s amounted to 266. This molecule also gave a faster deactivation against wild type hMiRP1 channels in data set [1] of 3 fold.

B1: rMiRP1 (other)
chain: MTTLANLTQTLEDAFKKVFITYMDSWRRNTTAEQQALQARVDAENFYYVILYLMVMIGMFAFIVVAILVSTVKSKRREHSQDPYHQYIVEDWQQKYRSQILHLEDSKATIHENLGATGFTVSP
On to B1, for which, in data set [1], the “acceleration of single-channel deactivation” value stood at 2.3 fold; the “increase in deactivation rate against HERG alone” value came out at 7 fold; the “increase in deactivation rate, plasma-like solution” value is ~2 fold.
